Reference: patent US20230002500A1 (BEIGENE, published 2023)

T1: recombinant OX40 protein with a His tag (Cat: 10481-H08H, Sino Biological) (UniProt P43489 29-216)
T1 construct: Bought protein; not shown: His tag
T1 sequence (looked up): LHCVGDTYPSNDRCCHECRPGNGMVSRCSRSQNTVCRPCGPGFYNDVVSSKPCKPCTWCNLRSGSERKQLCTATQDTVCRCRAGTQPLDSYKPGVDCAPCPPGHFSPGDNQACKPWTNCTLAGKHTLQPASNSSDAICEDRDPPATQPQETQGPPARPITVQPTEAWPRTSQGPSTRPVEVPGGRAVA

T2: full-length human OX40 expressed on HuT78 cells (HuT78/OX40) (human, UniProt P43489 29-277)
T2 sequence: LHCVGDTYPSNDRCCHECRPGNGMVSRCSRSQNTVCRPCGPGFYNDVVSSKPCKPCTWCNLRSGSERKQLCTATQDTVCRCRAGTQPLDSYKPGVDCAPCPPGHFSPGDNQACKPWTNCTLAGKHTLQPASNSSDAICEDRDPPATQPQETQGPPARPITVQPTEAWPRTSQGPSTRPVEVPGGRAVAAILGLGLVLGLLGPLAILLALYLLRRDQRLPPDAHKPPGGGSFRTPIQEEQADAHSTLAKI


Key:
[1] = molecular target: T1, recombinant OX40 protein with a His tag …; test: SPR (BIAcore T-200), antibody captured by anti-human IgG, OX40-His flowed; Test 1
Text: (§1) The anti-OX40 antibodies were characterized for their binding kinetics and affinity by SPR assays using BIAcore™ T-200 (GE Life Sciences). Briefly, anti-human IgG antibody was immobilized on an activated CM5 biosensor chip (Cat: BR100530, GE Life Sciences). An antibody with human IgG Fc region was flowed over the chip surface and captured by anti-human IgG antibody. Then a serial dilution of recombinant OX40 protein with a His tag (Cat: 10481-H08H, Sino Biological) was flowed over the chip surface and changes in surface plasmon resonance signals were analyzed to calculate the association rates (ka) and dissociation rates (kd) by using the one-to-one Langmuir binding model (BIA Evaluation Software, GE Life Sciences). The equilibrium dissociation constant (KD) was calculated as the ratio kd/ka.

[2] = molecular target: T2, full-length human OX40 expressed on …; test: cell-based or functional assay
[3] = molecular target: T1, recombinant OX40 protein with a His tag …; test: SPR (BIAcore T-200), antibody captured by anti-human IgG, OX40-His flowed; Test 2
Text: as §1

[4] = molecular target: T1, recombinant OX40 protein with a His tag …; test: Biacore SPR (set-up not named on the sheet; by Example 4 antibody captured, OX40-His flowed)

koff [1] [s⁻¹]	kon [1] [M⁻¹ s⁻¹]	ADCC, LDH release, NK92MI/CD16V effector cells and HuT78/OX40 target cells, EC50 [2] [ng/mL]	IL-2 production of HuT78/OX40 cells co-cultured with HEK293/OS8Low-FcγRI cells (ELISA), EC50 [2] [ng/mL]	koff [3] [s⁻¹]	kon [3] [M⁻¹ s⁻¹]	koff [4] [s⁻¹]	kon [4] [M⁻¹ s⁻¹]	Binder
0.00161	161000							445-3 IgG4 (445-3 with the Fc domain of human IgG4 with S228P and R409K mutations) (antibody, V domains shown) VH: QVQLVQSGAEVKKPGSSVKVSCKASGYKFTSYIIHWVRQAPGQGLEWMGYINPYNEGTRYNQKFQGRVTLTADKSTSTAYMELSSLRSEDTAVYYCARGYYGSSYAMDYWGQGTTVTVSS VL: DIQMTQSPSSLSASVGDRVTITCRASQGISNYLNWYQQKPDGAIKLLIYDASTLYSGVPSRFSGSGSGTDFTLTISSLQPEDFATYYCQQYSKLPYTFGGGTKVEIK
0.00167	182000	27	0.06	0.00159	163000	0.00148	174000	humanized anti-OX40 monoclonal antibody 445-3 (antibody, V domains shown, Human IgG1 wild type format) VH: QVQLVQSGAEVKKPGSSVKVSCKASGYKFTSYIIHWVRQAPGQGLEWMGYINPYNEGTRYNQKFQGRVTLTADKSTSTAYMELSSLRSEDTAVYYCARGYYGSSYAMDYWGQGTTVTVSS VL: DIQMTQSPSSLSASVGDRVTITCRASQGISNYLNWYQQKPDGAIKLLIYDASTLYSGVPSRFSGSGSGTDFTLTISSLQPEDFATYYCQQYSKLPYTFGGGTKVEIK
